Patent US20220041739A1 (UNIVERSITY OF ULSTER, published 2022)

Target: T1, IL-1R1 Fc fusion protein
T1 construct: Used as immunogen and as ELISA coating antigen at 1 ug/ml; also called IL-1R1 immunogen
T1 chain: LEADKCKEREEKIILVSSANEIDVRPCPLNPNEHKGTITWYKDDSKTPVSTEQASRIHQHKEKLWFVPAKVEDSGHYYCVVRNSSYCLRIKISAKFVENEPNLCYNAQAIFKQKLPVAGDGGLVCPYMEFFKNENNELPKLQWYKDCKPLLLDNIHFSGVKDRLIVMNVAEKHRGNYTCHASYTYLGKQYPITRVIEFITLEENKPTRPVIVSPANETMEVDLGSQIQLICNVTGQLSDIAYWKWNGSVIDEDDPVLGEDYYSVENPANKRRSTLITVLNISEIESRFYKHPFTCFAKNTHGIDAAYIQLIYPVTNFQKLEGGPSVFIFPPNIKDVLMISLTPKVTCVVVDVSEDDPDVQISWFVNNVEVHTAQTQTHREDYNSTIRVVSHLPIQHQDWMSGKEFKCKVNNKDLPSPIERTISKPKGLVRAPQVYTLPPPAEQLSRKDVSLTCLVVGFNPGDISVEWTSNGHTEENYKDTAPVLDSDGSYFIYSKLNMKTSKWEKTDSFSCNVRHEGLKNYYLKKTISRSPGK
Assay: ELISA of hybridoma supernatants on coated IL-1R1, with APO-A1 as negative control
Protocol: The day prior to screening, a Maxi Sorp plate was coated by adding 100 μl/well of 50 mM sodium carbonate coating buffer (pH 9.5) containing the IL-1R1 at 1 μg/ml. A separate coating solution was prepared by diluting APO-A1 in the same coating buffer at 1 μg/ml. […] This plate was incubated overnight at 4° C. in static conditions.
Eleven days after fusion, protoclones were screened by ELISA. 20× Maxi Sorp 96 well plates were coated as described herein using APO-A1 at 1 μg/ml as the negative control for specificity. The coating solution was removed and the plates were blocked as described herein. Samples were prepared by removing 160 μl of supernatant from each well of the ten fusion plates, limiting dilution plates, or 24-well plates and transferring to fresh 96 well culture plates containing 50 μl 1×PBS. After 2 hours of blocking, the blocking solution was removed, and the plates were washed 3× with PBS-T. The samples from each dilution plate were loaded onto the ELISA plates at 100 μl/well by adding 1 row from each dilution plate per 2 rows on the ELISA plates to account for specificity of the coating antigens. Two wells per ELISA were incubated with 100 μl 1×PBS as a negative control. These samples were incubated at 150 rpm for 2 hours at room temperature.

B1: Anti-IL-1R1 monoclonal antibody produced from clone F237 5D1-1A8-2A5 (antibody, V domains shown)
VH: QIQLVQSGPELRKPGETVRISCKASGYPFTTAGLQWVQKMSGKGLKWIGWMNTQSEVPKYAEEFKGRIAFSLETAASTAYLQINNLKTEDTATYFCAKSVYFNWRYFDVWGAGTTVTVSS
VL: DIVMTQSPATLSVTPGDRVSLSCRASQSISDYLSWYQQRSHESPRLIIKYASQSISGIPSRFSGSGSGSDFTLSINSVEPEDVGVYYCQHGHSFPLTFGSGTKLELKR
notes: Mouse hybridoma antibody tested as culture supernatant; also called first antibody (to IL-1R1)
**Q.** Does B1 bind?
**A.** Result: binds
